Data from PMC9482650, “Quantitative fragmentomics allow affinity mapping of interactomes” (Nature Communications, 2022).

T1: DFNB31_1, Q9P202
T1 sequence (Q9P202 135-233, limits assumed, looked up): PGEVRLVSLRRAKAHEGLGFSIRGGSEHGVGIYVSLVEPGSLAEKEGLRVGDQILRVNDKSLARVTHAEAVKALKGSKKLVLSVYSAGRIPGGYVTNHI

T2: DLG3_1, Q92796
T2 sequence (Q92796 125-227, limits assumed, looked up): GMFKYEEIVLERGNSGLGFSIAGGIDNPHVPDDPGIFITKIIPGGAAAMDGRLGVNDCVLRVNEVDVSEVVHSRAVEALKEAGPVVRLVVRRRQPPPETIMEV

T3: DLG3_2, Q92796
T3 sequence (Q92796 221-321, limits assumed, looked up): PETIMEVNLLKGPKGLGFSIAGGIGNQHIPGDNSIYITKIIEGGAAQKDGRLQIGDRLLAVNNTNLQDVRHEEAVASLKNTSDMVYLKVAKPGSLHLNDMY

T4: LIN7A, O14910
T4 sequence (O14910 103-200, limits assumed, looked up): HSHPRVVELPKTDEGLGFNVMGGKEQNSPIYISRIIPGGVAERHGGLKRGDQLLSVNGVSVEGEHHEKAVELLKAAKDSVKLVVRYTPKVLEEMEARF

T5: MPDZ_5, O75970
T5 sequence (O75970 695-796, limits assumed, looked up): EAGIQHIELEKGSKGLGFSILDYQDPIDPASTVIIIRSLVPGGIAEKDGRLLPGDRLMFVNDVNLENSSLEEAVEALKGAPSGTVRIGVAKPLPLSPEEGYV

T6: NHERF3_3, Q5T2W1
T6 sequence (Q5T2W1 238-333, limits assumed, looked up): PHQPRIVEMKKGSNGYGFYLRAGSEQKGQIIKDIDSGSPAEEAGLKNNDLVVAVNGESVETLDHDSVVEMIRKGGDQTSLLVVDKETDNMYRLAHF

T7: PTPN13_1, Q12923
T7 sequence (Q12923 1088-1188, limits assumed, looked up): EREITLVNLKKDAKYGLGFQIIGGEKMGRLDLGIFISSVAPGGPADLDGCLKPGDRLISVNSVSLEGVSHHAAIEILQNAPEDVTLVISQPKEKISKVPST

T8: RADIL, Q96JH8
T8 sequence (Q96JH8 971-1071, limits assumed, looked up): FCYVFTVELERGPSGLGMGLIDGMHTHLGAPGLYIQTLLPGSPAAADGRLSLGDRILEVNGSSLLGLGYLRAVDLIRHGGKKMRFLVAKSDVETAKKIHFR

T9: RHPN1, Q8TCX5
T9 sequence (Q8TCX5 508-602, limits assumed, looked up): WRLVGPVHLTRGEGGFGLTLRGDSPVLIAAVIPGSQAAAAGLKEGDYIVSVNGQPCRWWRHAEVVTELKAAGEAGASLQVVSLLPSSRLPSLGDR

T10: SNTG1, Q9NSN8
T10 sequence (Q9NSN8 52-150, limits assumed, looked up): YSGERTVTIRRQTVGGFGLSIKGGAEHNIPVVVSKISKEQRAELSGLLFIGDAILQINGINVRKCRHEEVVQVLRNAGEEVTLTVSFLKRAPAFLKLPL

T11: SNTG2, Q9NY99
T11 sequence (Q9NY99 68-166, limits assumed, looked up): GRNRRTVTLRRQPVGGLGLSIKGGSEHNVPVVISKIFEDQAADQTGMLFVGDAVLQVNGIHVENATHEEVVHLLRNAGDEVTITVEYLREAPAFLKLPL


Key:
Assay in all cases: holdup assay
Set-up in all cases: key: below the threshold = too weak to quantify, mostly under pKd 3.1 to 4
Settings in all cases: plain residues with an end cap or a label only (N-terminal biotin on a linker: ado-ado)
[1] = target: AHNAK1, Q09666
Chain of AHNAK1, Q09666 (Q09666 4-100): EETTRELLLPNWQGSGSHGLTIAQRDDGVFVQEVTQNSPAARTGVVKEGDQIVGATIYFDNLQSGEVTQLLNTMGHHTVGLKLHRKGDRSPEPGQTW

[2] = target: T1, DFNB31_1, Q9P202
[3] = target: DLG1_3, Q12959
Chain of DLG1_3, Q12959 (Q12959 457-571): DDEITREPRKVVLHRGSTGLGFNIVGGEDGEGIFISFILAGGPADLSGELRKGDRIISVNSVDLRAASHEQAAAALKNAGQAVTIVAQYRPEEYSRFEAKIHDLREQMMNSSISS

[4] = target: T2, DLG3_1, Q92796
[5] = target: T3, DLG3_2, Q92796
[6] = target: FRMPD2_2, Q68DX3
Chain of FRMPD2_2, Q68DX3 (Q68DX3 944-1038): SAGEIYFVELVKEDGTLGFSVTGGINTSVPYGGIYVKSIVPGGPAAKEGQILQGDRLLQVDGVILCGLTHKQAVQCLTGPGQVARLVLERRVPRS

[7] = target: FRMPD2_3, Q68DX3
Chain of FRMPD2_3, Q68DX3 (Q68DX3 1073-1166): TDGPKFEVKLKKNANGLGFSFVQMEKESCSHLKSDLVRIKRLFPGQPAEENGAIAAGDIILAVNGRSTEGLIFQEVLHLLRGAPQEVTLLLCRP

[8] = target: GORASP2, Q9H8Y8
[9] = target: Inadl_10, Q8NI35
Chain of Inadl_10, Q8NI35 (Q8NI35 1673-1763): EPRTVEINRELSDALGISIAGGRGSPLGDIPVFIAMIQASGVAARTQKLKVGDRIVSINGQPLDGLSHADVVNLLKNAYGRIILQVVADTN

[10] = target: Inadl_3, Q8NI35
Chain of Inadl_3, Q8NI35 (Q8NI35 359-469): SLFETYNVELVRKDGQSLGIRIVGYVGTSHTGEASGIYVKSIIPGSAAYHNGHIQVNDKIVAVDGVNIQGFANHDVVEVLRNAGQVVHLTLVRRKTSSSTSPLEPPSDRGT

[11] = target: Inadl_9, Q8NI35
Chain of Inadl_9, Q8NI35 (Q8NI35 1530-1615): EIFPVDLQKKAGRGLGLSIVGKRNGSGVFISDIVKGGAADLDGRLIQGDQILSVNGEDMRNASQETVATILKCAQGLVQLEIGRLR

[12] = target: LIMK2, P53671
Chain of LIMK2, P53671 (P53671 143-248): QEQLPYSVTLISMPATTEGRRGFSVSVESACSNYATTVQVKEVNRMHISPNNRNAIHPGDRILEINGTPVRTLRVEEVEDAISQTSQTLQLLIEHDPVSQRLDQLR

[13] = target: T4, LIN7A, O14910
[14] = target: LNX1_2, Q8TBB1
Chain of LNX1_2, Q8TBB1 (Q8TBB1 371-470): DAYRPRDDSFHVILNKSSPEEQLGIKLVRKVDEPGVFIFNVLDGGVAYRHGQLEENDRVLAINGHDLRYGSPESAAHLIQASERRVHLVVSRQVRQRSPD

[15] = target: MAGI1_2, Q96QZ7
Chain of MAGI1_2, Q96QZ7 (Q96QZ7 456-580): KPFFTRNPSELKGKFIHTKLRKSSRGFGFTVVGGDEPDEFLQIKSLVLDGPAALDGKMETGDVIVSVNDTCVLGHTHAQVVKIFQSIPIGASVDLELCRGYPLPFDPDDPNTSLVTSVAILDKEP

[16] = target: MAGI2_4, Q86UL8
Chain of MAGI2_4, Q86UL8 (Q86UL8 772-865): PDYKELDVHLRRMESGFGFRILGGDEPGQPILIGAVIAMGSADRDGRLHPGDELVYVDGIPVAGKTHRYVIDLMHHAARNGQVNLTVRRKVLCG

[17] = target: T5, MPDZ_5, O75970
[18] = target: T6, NHERF3_3, Q5T2W1
[19] = target: NHERF4_1, Q86UT5-2
Chain of NHERF4_1, Q86UT5-2 (Q86UT5 other isoform, or with tags, fused parts or gaps): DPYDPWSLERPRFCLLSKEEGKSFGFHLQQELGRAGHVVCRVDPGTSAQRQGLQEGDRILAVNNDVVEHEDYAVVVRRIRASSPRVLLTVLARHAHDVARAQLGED

[20] = target: T7, PTPN13_1, Q12923
[21] = target: PTPN3, P26045
Chain of PTPN3, P26045 (P26045 505-587): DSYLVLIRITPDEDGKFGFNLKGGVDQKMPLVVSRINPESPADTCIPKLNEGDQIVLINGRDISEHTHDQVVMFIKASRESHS

[22] = target: T8, RADIL, Q96JH8
[23] = target: T9, RHPN1, Q8TCX5
[24] = target: SCRIB_2, Q14160
Chain of SCRIB_2, Q14160 (Q14160 857-960): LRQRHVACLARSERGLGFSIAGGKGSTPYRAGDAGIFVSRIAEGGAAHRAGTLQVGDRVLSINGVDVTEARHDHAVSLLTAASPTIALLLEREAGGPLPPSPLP

[25] = target: T10, SNTG1, Q9NSN8
[26] = target: T11, SNTG2, Q9NY99
[27] = target: TJP1_3, Q07157
Chain of TJP1_3, Q07157 (Q07157 416-512): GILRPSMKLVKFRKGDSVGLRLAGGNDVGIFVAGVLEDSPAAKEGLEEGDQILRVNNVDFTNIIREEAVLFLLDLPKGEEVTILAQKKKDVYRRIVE

Binder	pKd [1]	pKd [2]	pKd [3]	pKd [4]	pKd [5]	pKd [6]	pKd [7]	pKd [8]	pKd [9]	pKd [10]	pKd [11]	pKd [12]	pKd [13]	pKd [14]	pKd [15]	pKd [16]	pKd [17]	pKd [18]	pKd [19]	pKd [20]	further results
SRPTKGPTLL [PLEKHH2, Q8IVE3]	below the threshold	below the threshold	below the threshold	below the threshold	below the threshold	below the threshold	below the threshold	3.6	below the threshold	below the threshold	3.5	below the threshold	below the threshold	below the threshold	4.25	below the threshold	below the threshold	below the threshold	4.41	below the threshold	pKd [21]: 4.02; pKd [22]: 3.94; pKd [23]: below the threshold; pKd [24]: below the threshold; pKd [25]: below the threshold; pKd [26]: below the threshold; pKd [27]: below the threshold
LTAQEQPVYI [APBA1, Q02410]	below the threshold	below the threshold	below the threshold	below the threshold	4.06	below the threshold	below the threshold	4.18	below the threshold	below the threshold	4.6	below the threshold	below the threshold	below the threshold	below the threshold	below the threshold	3.52	below the threshold	below the threshold	below the threshold	pKd [21]: 3.61; pKd [22]: 4.53; pKd [23]: below the threshold; pKd [24]: below the threshold; pKd [25]: below the threshold; pKd [26]: below the threshold; pKd [27]: below the threshold
